Here are results for one molecule from PMC2584968 (Nature, 2007).

The experiment addresses HIV-1 gp120 fragment OD1 (HIV-1). The experiment in a line: SPR. A general note: In SPR one partner is held on a chip, and binding of the other changes the refractive index at the surface.

B1: broadly neutralizing antibody b12 (antibody, V domains shown)
VH: QVQLVQSGAEVKKPGASVKVSCQASGYRFSNFVIHWVRQAPGQRFEWMGWINPYNGNKEFSAKFQDRVTFTADTSANTAYMELRSLRSADTAVYYCARVGPYSWDDSPQDNYYMDVWGKGTTVIVSS
VL: EIVLTQSPGTLSLSPGERATFSCRSSHSIRSRRVAWYQHKPGQAPRLVIHGVSNRASGISDRFSGSGSGTDFTLTITRVEPEDFALYYCQVYGASSYTFGQGTKLERK
As to B1, the “fold faster dissociation rate than on HXBc2 core gp120” value is about 15 fold.
